What all share (test): cell_activity
In series [1] the test system is ZFN SBS34931. The following applies: HepG2-C3a, paired with 33940.
For series [2], the system named is TALEN 102256.
Series [3] deals with TALEN 102255.
Series [4] has as its system TALEN 102265.
For series [5], the system named is TALEN 102266. The conditions noted are these: C17, with 102268, HepG2-C3a.
The test system of series [6] is TALEN 102252.
Series [7] concerns TALEN 102268.
The subject of series [8] is TALEN 102267.
Series [9] has as its system TALEN 102264. The conditions noted are these: C63, with 102261, HepG2-C3a.
For series [10], the system named is TALEN 102253.
Series [11] relates to TALEN 102254.
In series [12] the test system is TALEN 102259.
Series [13] relates to TALEN 102262. The following applies: C63, with 102264, HepG2-C3a.
Series [14] relates to ZFN SBS35393. The following applies: Cel-I, paired with 35370.
The test system of series [15] is ZFN SBS35394. The conditions noted are these: Cel-I, paired with 35364.
The test system of series [16] is ZFN SBS35396. The following applies: Cel-I, paired with 35361; 31 and 29% in HepG2-C3a (Table 10).
Series [17] concerns ZFN SBS35398. The conditions noted are these: Cel-I, paired with 35361.
Series [18] concerns ZFN SBS35399. The conditions noted are these: Cel-I, paired with 35361.
Series [19] deals with ZFN SBS35405. The following applies: Cel-I, paired with 35370.
In series [20] the test system is ZFN SBS35458. The following applies: Cel-I, paired with 35428; 10 and 7% with 35426 in HepG2-C3a (Table 10).
The subject of series [21] is ZFN SBS35480. The following applies: Cel-I, paired with 35426.
Series [22] relates to TALEN 102263. The conditions noted are these: C63, with 102261, HepG2-C3a.
For series [23], the system named is TALEN 102257.
Series [24] deals with TALEN 102258.
Series [25] concerns TALEN 102260.
For series [26], the system named is ZFN SBS33940. The conditions noted are these: HepG2-C3a, paired with 34931.
The test system of series [27] is TALEN 102251. The following applies: C17, with 102249, HepG2-C3a.
In series [28] the test system is TALEN 102249.
The subject of series [29] is TALEN 102250.
Series [30] deals with TALEN 102271. The conditions noted are these: C17, with 102269, HepG2-C3a.
The subject of series [31] is TALEN 102261. The following applies: C63, with 102264, HepG2-C3a.
Series [32] deals with ZFN SBS35426. The following applies: Cel-I, paired with 35480.
In series [33] the test system is ZFN SBS35428. The conditions noted are these: Cel-I, paired with 35480.
The test system of series [34] is ZFN SBS35361. The following applies: Cel-I, paired with 35396; 31 and 29% in HepG2-C3a (Table 10).
Series [35] relates to ZFN SBS35364. The following applies: Cel-I, paired with 35394.
Series [36] concerns ZFN SBS35370. The conditions noted are these: Cel-I, paired with 35405.
For series [37], the system named is ZFN SBS35379. The following applies: Cel-I, paired with 35393.
In series [38] the test system is TALEN 102269. The conditions noted are these: C17, with 102271, HepG2-C3a.

Consider “ACCAAGAAGACAGACTAAAATGAAAATA (double strand) [34931 site]”, for which the activity (% modification) in [1] came out at 7.3. “ATAAAGCATAGTGCAATGG (double strand) [102256 site]”: the activity (% modification) in series [2] (C17, with 102254, HepG2-C3a) worked out at 28; in series [2] (C63, with 102253, HepG2-C3a) it was 23. For “ATAAAGCATAGTGCAATGGAT (double strand) [102255 site]”, the activity (% modification) in series [3] (C17, with 102254, HepG2-C3a) turned out to be 43; in [3] (C63, with 102253, HepG2-C3a) it was 21.

Take “ATAATTGAACATCATCCTG (double strand) [102265 site]”: the activity (% modification) in [4] (C17, with 102267, HepG2-C3a) came to 47; in [4] (C63, with 102267, HepG2-C3a), 9.8.

In [5], “ATAATTGAACATCATCCTGAG (double strand) [102266 site]” gave an activity (% modification) of 10.

As for “ATAGTGCAATGGATAGGTC (double strand) [102252 site]”, the activity (% modification) is 32 in [6] (C17, with 102250, HepG2-C3a) and 8.3 in [6] (C63, with 102249, HepG2-C3a). On to “ATATTGGGCTCTGATTCCT (double strand) [102268 site]”, for which the activity (% modification) came out at 10 in [7] (C17, with 102266, HepG2-C3a) and 7.9 in [7] (C63, with 102265, HepG2-C3a).

Take “ATATTGGGCTCTGATTCCTAC (double strand) [102267 site]”: the activity (% modification) in [8] (C17, with 102265, HepG2-C3a) came out at 47; in [8] (C63, with 102265, HepG2-C3a), 9.8. Regarding “ATCTAATACTCTTTTAGTGTC (double strand) [102264 site]”, the activity (% modification) in series [9] stood at 22.

In the case of “ATTGAATTCATAACTATCC (double strand) [102253 site]”, the activity (% modification) was determined as 38 in series [10] (C17, with 102255, HepG2-C3a) and 23 in series [10] (C63, with 102256, HepG2-C3a). As to “ATTGAATTCATAACTATCCCA (double strand) [102254 site]”, the activity (% modification) in series [11] (C17, with 102255, HepG2-C3a) is 43; in series [11] (C63, with 102256, HepG2-C3a) it was 16.

For the sequence “ATTTATGAGATCAACAGCACA (double strand) [102259 site]”, the activity (% modification) was found to be 18 in series [12] (C17, with 102257, HepG2-C3a) and 15 in [12] (C63, with 102257, HepG2-C3a). Sequence “ATTTTAGTCTGTCTTCTTG (double strand) [102262 site]” gave an activity (% modification) in [13] of 17. On to “CCTATCCATTGCACTATGCTTTATTTAA (double strand) [locus 2 right site]”, for which the activity (% mutated targets) in series [14] turned out to be 21; in series [15], 24; in [16], 25; in series [17], 22; in series [18] it was 23; in series [19], 23. Turning to “CCTGTGCTGTTGATCTCATAAATAGAAC (double strand) [locus 3 right site]”, the results for the activity (% mutated targets) in [20] and in series [21] were 4.9 and 7, respectively. Take “CTAATACTCTTTTAGTGTCT (double strand) [102263 site]”: in series [22], the activity (% modification) was 16.

Consider “CTATGCTTTATTTAAAAAC (double strand) [102257 site]”, for which the activity (% modification) in series [23] (C17, with 102259, HepG2-C3a) stood at 18; in series [23] (C63, with 102259, HepG2-C3a), 15. Regarding “CTATGCTTTATTTAAAAACCA (double strand) [102258 site]”, the activity (% modification) in [24] (C17, with 102260, HepG2-C3a) came to 24; in [24] (C63, with 102260, HepG2-C3a), 11. For the sequence “CTATTTATGAGATCAACAGCA (double strand) [102260 site]”, the activity (% modification) in series [25] (C17, with 102258, HepG2-C3a) worked out at 24; in series [25] (C63, with 102257, HepG2-C3a) it was 13.

“CTGTTGATAGACACTAAAAGAGTATTAG (double strand) [33940 site]” displayed an activity (% modification) in series [26] of 7.3. Turning to “GTGCAATGGATAGGTCTTT (double strand) [102251 site]”, in [27], the activity (% modification) amounted to 15. For the sequence “GTTGAAGATTGAATTCATA (double strand) [102249 site]”, the activity (% modification) in [28] (C17, with 102251, HepG2-C3a) turned out to be 15; in [28] (C63, with 102252, HepG2-C3a), 8.3.

As for “GTTGAAGATTGAATTCATAAC (double strand) [102250 site]”, the activity (% modification) amounted to 32 in series [29] (C17, with 102252, HepG2-C3a) and 8 in series [29] (C63, with 102252, HepG2-C3a).

In series [30], “TTATGCATTTGTTTCAAAA (double strand) [102271 site]” showed an activity (% modification) of 14. “TTCATTTTAGTCTGTCTTCTT (double strand) [102261 site]” yielded an activity (% modification) in series [31] of 22. Turning to “TTGTGGTTTTTAAATAAAGCATAGTGCA (double strand) [locus 3 left site]”, the activity (% mutated targets) was found to be 7 in series [32] and 6 in series [33]. Turning to “TTTGGGATAGTTATGAATTCAATCTTCA (double strand) [locus 2 left site]”, the activity (% mutated targets) in series [34] amounted to 25; in [35] it was 24; in [36], 23; in series [37] it was 21.

In the case of “TTTTTCTGTAGGAATCAGA (double strand) [102269 site]”, the activity (% modification) in [38] was found to be 14.

Source of the values: patent US20140017212.
